In patent publication US10100120B2, “Antibody which specifically binds to human CRTH2” (KYOWA HAKKO KIRIN CO., LTD, priority 2015, dated 2018):

Legend:
[1] = target: T1, mutated human CRTH2 with amino acid substitution (Homo sapiens, UniProt Q9Y5Y4, D171A/I173A/T172A); assay: Epitope analysis using CHO-S cells which express mutated human CRTH2 with amino acid substitution; format: binding; conditions: mutant D171A, T172A, and I173A; antibody 10 μg/mL; relative to wild-type = 100%
T1 construct: inserting genes encoding various mutants with amino acid substitution obtained by deleting termination codons; expressed in transfected cells; host or cells: CHO-S cells (Lifetechnologies), transient (phmAG1-MNLinker vector)
T1 sequence (Q9Y5Y4 1-395 D171A/T172A/I173A): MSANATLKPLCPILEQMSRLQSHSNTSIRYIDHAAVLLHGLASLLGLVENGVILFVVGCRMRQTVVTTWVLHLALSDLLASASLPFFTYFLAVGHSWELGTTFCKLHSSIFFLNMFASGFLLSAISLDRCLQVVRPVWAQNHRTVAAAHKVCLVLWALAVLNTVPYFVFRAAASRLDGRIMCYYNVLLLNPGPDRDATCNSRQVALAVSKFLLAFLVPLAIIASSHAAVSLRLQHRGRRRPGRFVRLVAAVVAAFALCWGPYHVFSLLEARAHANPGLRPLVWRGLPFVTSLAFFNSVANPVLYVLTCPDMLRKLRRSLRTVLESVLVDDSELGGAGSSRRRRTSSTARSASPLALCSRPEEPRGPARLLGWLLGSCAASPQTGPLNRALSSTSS
Description: A mutant with amino acid substitution expression vector obtained by partially substituting amino acid residues in an extracellular region with other amino acid residues among the amino acid sequences of human CRTH2 was prepared. Specifically, mutant with amino acid substitution expression vectors obtained by substitution of S2A; N4A; T6A and L7A; K8A, P9A, and L10A; P12A, L14A, and EISA; Q16E, R19H, and Q21R; H23A, S24A, and N25A; T26A, S27A, and I28A; D171A, T172A, and I173A; S174A, R175A, and L176A; D177A, G178A, and R179A; 1180A and M181A; Y183A, Y184A, and N185A; L187A, L188A, and L189A; N190A; P191A; G192A; P193A; D194A; R195A; D196A, and T198A; N275A, G277A, and L278A; P276A; P279A and L281A; P280A; or V282A, R283A, and R284A in the amino acid sequences represented by SEQ ID NO: 2 were respectively prepared. It should be noted that the above symbols in the amino acid substitution indicate [single letter code of an amino acid residue before substitution] [substitution position counting from the N terminal] [single letter code of the amino acid reside after substitution].
Azami-Green tag was added to the intercellular C terminal region by inserting genes encoding various mutants with amino acid substitution obtained by deleting termination codons to the restriction enzyme sites of BamHI and HindIII using phmAG1-MNLinker (MBL) as expression vectors.
The above-described vectors expressing mutants with amino acid substitution were prepared using 1) a method of entirely synthesizing gene sequences encoding mutants with amino acid substitution and inserting the gene sequences into a vector or 2) a method of performing site-specific mutation from a vector into which DNA which encodes the amino acid sequences of wild-type human CRTH2 represented by SEQ ID NO: 1 was inserted.
CHO-S cells (Lifetechnologies) were used for preparing mutated human CRTH2 with amino acid substitution expressing cell lines. Free style CHO expression medium (Invitrogen) containing 8 mM L-Glutamine (Invitrogen) was used for subculturing cells and the cells were cultured by shaking under the conditions of 37° C. in the presence of 5% CO2.
25 μg of the mutated human CRTH2 with amino acid substitution expression vector prepared in (1) described above was dissolved in 400 μL of Opti-Pro SFM (Invitrogen) and 25 μL of a Freestyle MAX Reagent (Invitrogen) was dissolved in 400 μL of Opti-Pro SFM and each of them were allowed to stand at room temperature for 5 minutes. The two liquids were mixed with each other and allowed to stand at room temperature for 15 minutes. The mixed solution was added to the CHO-S culture solution and the cells were cultured for 24 hours, thereby obtaining cell lines which express mutated human CRTH2 with amino acid substitution.
The CHO-S cells which express mutated human CRTH2 with amino acid substitution established in (2) were washed with SM, seeded in a 96-well plate such that one well has 2×10^5 cells, and centrifuged at 1700 rpm for 2 minutes. After the supernatant was removed, chLym2, LV0HV1, the anti-human CRTH2 antibody hu19A2 v52, hu8B1 v1, ch3C12, or ch31A5 prepared in Example 9, or a commercially available anti-human CRTH2 antibody BM16 (Santa Cruz) prepared to have a concentration of 10 μg/mL using SM was added thereto to cause a reaction at 4° C. for 1 hour.
After the cells were washed, goat anti-Human IgG Alexa 647 (Molecular Probes) diluted with SM was added to wells to which chLym2, LV0HV1, hu19A2 v52, hu8B1 v1, ch3C12, or ch31A5 was added and goat anti-Rat IgG Alexa 647 (Molecular Probes) diluted with SM was added to wells to which BM16 was added at a final concentration of 10 μg/mL to cause a reaction at 4° C. for 1 hour.
After the reaction, the cells were washed and suspended with SM, and the fluorescent intensity was analyzed by flow cytometry (BD Biosciences, FACS CantoII). […]

human basophils = assay: Reactivity against human basophils, flow cytometry; format: binding; conditions: 10 μg/mL, 4° C., 1 hour; FIG. 9
Description: To human peripheral blood collected by adding a heparin sodium injection liquid, the same amount of physiological saline for injection as the human peripheral blood was added and mixed with each other. 15 mL of Ficoll-Paque PREMIUM 1.084 (GE Healthcare) was added to a 50 mL centrifuge tube, 30 mL of the human peripheral blood diluted with physiological saline was overlaid thereon, and centrifugation was performed at room temperature and 1500 rpm for 30 minutes.
After the centrifugation, the mononuclear cell layer was recovered using a pipette and washed twice with an MACS buffer. After the number of cells was counted, basophils were isolated by a negative selection method using Basophil Isolation Kit II, human (Miltenyi Biotec) according to the attached instructions.
After the isolated cells were washed with SM, the isolated cells were seeded in a 96-well plate such that one well has 5×10^4 cells, and centrifuged at 2000 rpm for 2 minutes. […] After the cells were washed, the cells were suspended with SM, and the fluorescent intensity was analyzed by flow cytometry (BD Biosciences, FACS CantoII).

Th2 cells = assay: Cytotoxic activity against Th2 cells: cytokine production of PBMC after antibody treatment; format: cell-based, human; conditions: antibody 10 μg/mL 20 hours, then anti-CD3/anti-CD28 stimulation 3 days
Description: The mononuclear cell layer prepared in the same manner as in Example 13 was washed twice with RPMI-1640 (Wako Pure Chemical Industries) to which 1/10 volume FBS (GIBCO Inc.), 200 mM-L-Glutamine Stock Solution (NACALAI TESQUE, Inc.), 10 mM MEM Non-Essential Amino Acids Solution (GIBCO Inc.), 100 mM Sodium Pyruvate (GIBCO Inc.), 1 M HEPES Buffer Solution (GIBCO Inc.), and 1/100 volume Penicillin-Streptomycin, Liquid (GIBCO Inc.) were added [hereinafter, referred to as peripheral blood mononuclear cell (PBMC) culture medium], thereby preparing a 1×10^7 cells/mL cell suspension.
The prepared cell suspension was seeded in a 96-well plate at 100 μL/well, chLym2 antibody, the humanized anti-human CRTH2 antibody LV0HV1 or the isotype control antibody described in Example 8 was added thereto at a final concentration of 10 μg/mL to cause a reaction in a 5% CO2 incubator at 37° C. for 20 hours.
The cells after the reaction were washed 7 times with a PBMC culture medium to remove the test antibodies thoroughly. Thereafter, the cells were suspended with 100 μL of PBMC culture medium and seeded in a plate in which anti-CD3 antibody OKT3 (Abeam plc.) was immobilized at a concentration of 1 μg/mL. Next, an anti-CD28 antibody (BD Biosciences) prepared to have a concentration of 2 μg/mL was added thereto at 100 μL/well to cause a reaction in a 5% CO2 incubator at 37° C. for 3 days.
The supernatant after the reaction was recovered, and cytokine in the supernatant was quantified using Human IFN-γ Flex Set (BD Biosciences), Human IL-5 Flex Set (BD Biosciences), and Human IL-13 Flex Set (BD Biosciences) according to the attached instructions.

B1: chLym2: rat/human chimeric Lym2 antibody, Lym2 variable regions with human IgG1 and κ constant regions (antibody, V domains shown)
VH: EVQLVESGGGLVQPGRSMKLSCAASGFTFSNYYMAWVRQAPKKGLEWVATISYDGSSTYYRDSVKGRFTISRDNAKSTLYLQMDSLRSEDTATYYCARHRGYYYSGAGYFDYWGQGVMVTVSS
VL: DVVLTQTPVSLSVTLGDQASISCRSSQSLEYSDGYTYLEWYLQKPGQSPQVLIYGVSNRFSGVPDRFIGSGSGTDFTLKISRVEPEDLGVYYCFQATHDPLTFGSGTKLEIK
reactivity against cells expressing mutated human CRTH2 [1]: additionally lost
reactivity against human basophils (human basophils): has reactivity
production of IL-5 (Th2 cytokine) (Th2 cells; FIG. 12(A)): reduced
production of IL-13 (Th2 cytokine) (Th2 cells; FIG. 12(A)): reduced
production of IFN-γ (Th1 cytokine) (Th2 cells; FIG. 12(B)): not changed
